Key:
human TFII-I (human) = human TFII-I (human) (UniProt P78347); assay: cell-based or functional assay
human GATA2 (human) = human GATA2 (human) (UniProt P23769); assay: cell-based or functional assay
Sequence of human GATA2 (human) (P23769 whole entry): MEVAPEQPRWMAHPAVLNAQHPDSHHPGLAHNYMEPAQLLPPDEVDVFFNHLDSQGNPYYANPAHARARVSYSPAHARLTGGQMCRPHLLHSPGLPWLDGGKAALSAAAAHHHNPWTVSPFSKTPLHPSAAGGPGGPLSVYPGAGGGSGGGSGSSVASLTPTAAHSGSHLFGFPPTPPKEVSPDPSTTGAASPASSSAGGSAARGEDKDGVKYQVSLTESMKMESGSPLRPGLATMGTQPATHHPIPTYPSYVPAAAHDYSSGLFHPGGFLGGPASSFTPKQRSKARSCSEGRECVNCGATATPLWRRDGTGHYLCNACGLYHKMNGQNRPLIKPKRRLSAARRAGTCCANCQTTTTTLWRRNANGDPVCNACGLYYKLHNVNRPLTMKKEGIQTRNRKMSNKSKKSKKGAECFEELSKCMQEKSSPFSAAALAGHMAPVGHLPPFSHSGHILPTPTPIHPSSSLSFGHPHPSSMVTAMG

Sequence of human TFII-I (human) (P78347 2-998 limits assumed): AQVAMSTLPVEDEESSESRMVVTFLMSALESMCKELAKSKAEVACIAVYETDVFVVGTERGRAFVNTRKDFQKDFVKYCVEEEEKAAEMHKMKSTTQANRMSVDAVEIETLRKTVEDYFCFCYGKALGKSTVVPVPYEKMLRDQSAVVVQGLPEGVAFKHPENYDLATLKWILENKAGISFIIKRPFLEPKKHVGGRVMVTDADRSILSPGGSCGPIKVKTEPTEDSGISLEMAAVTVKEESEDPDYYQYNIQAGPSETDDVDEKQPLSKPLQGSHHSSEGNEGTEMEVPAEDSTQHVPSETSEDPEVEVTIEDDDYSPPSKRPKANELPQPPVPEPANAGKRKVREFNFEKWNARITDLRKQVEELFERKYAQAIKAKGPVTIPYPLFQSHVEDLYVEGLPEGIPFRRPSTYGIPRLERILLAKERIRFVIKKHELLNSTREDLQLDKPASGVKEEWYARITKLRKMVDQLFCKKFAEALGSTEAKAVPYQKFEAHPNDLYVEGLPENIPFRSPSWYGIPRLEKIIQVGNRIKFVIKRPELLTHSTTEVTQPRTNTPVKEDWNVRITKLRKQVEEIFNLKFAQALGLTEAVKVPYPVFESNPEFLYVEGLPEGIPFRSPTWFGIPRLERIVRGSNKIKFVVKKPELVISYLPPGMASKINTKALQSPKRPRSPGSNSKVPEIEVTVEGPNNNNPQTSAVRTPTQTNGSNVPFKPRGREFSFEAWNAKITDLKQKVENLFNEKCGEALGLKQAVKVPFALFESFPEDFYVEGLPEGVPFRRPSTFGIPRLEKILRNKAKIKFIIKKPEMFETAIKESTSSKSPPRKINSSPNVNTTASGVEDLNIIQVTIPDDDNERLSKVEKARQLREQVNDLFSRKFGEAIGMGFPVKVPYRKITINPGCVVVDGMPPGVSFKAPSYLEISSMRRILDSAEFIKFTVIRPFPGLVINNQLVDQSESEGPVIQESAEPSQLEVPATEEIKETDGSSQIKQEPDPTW

TFII-I protein levels in the nuclear fraction of p190RhoGAP knockdown HMVE cells (immunoblot, fluorescence microscopy) (human TFII-I (human)): 1.5 fold
GATA2 levels in the nucleus of p190RhoGAP knockdown cells relative to control cells (immunoblotting, fluorescence microscopy) (human GATA2 (human)): > 10 fold
B1: human p190RhoGAP (protein)
chain: MMMARKQDVRIPTYNISVVGLSGTEKEKGQCGIGKSCLCNRFVRPSADEFHLDHTSVLSTSDFGGRVVNNDHFLYWGEVSRSLEDCVECKMHIVEQTEFIDDQTFQPHRSTALQPYIKRAAATKLASAEKLMYFCTDQLGLEQDFEQKQMPDGKLLVDGFLLGIDVSRGMNRNFDDQLKFVSNLYNQLAKTKKPIVVVLTKCDEGVERYIRDAHTFALSKKNLQVVETSARSNVNVDLAFSTLVQLIDKSRGKTKIIPYFEALKQQSQQIATAKDKYEWLVSRIVKNHNENWLSVSRKMQASPEYQDYVYLEGTQKAKKLFLQHIHRLKHEHIERRRKLYLAALPLAFEALIPNLDEIDHLSCIKAKKLLETKPEFLKWFVVLEETPWDATSHIDNMENERIPFDLMDTVPAEQLYEAHLEKLRNERKRVEMRRAFKENLETSPFITPGKPWEEARSFIMNEDFYQWLEESVYMDIYGKHQKQIIDKAKEEFQELLLEYSELFYELELDAKPSKEKMGVIQDVLGEEQRFKALQKLQAERDALILKHIHFVYHPTKETCPSCPACVDAKIEHLISSRFIRPSDRNQKNSLSDPNIDRINLVILGKDGLARELANEIRALCTNDDKYVIDGKMYELSLRPIEGNVRLPVNSFQTPTFQPHGCLCLYNSKESLSYVVESIEKSRESTLGRRDNHLVHLPLTLILVNKRGDTSGETLHSLIQQGQQIASKLQCVFLDPASAGIGYGRNINEKQISQVLKGLLDSKRNLNLVSSTASIKDLADVDLRIVMCLMCGDPFSADDILFPVLQSQTCKSSHCGSNNSVLLELPIGLHKKRIELSVLSYHSSFSIRKSRLVHGYIVFYSAKRKASLAMLRAFLCEVQDIIPIQLVALTDGAVDVLDNDLSREQLTEGEEIAQEIDGRFTSIPCSQPQHKLEIFHPFFKDVVEKKNIIEATHMYDNAAEACSTTEEVFNSPRAGSPLCNSNLQDSEEDIEPSYSLFREDTSLPSLSKDHSKLSMELEGNDGLSFIMSNFESKLNNKVPPPVKPKPPVHFEITKGDLSYLDQGHRDGQRKSVSSSPWLPQDGFDPSDYAEPMDAVVKPRNEEENIYSVPHDSTQGKIITIRNINKAQSNGSGNGSDSEMDTSSLERGRKVSIVSKPVLYRTRCTRLGRFASYRTSFSVGSDDELGPIRKKEEDQASQGYKGDNAVIPYETDEDPRRRNILRSLRRNTKKPKPKPRPSITKATWESNYFGVPLTTVVTPEKPIPIFIERCIEYIEATGLSTEGIYRVSGNKSEMESLQRQFDQDHNLDLAEKDFTVNTVAGAMKSFFSELPDPLVPYNMQIDLVEAHKINDREQKLHALKEVLKKFPKENHEVFKYVISHLNKVSHNNKVNLMTSENLSICFWPTLMRPDFSTMDALTATRTYQTIIELFIQQCPFFFYNRPITEPPGARPSSPSAVASTVPFLTSTPVTSQPSPPQSPPPTPQSPMQPLLPSQLQAEHTL

From patent US20110135632A1
